± gives the standard deviation of the averaged measurements.
Test: total protein half-life in vivo (active degradation + dilution); higher = more stable protein
[1] = E. coli NCM3722 delta-clpP delta-lon delta-hslV, growth: N-lim chemostat, doubling time 6 h
[2] = E. coli NCM3722 delta-clpP, growth: N-lim chemostat, doubling time 6 h
[3] = E. coli NCM3722 delta-hslV, growth: N-lim chemostat, doubling time 6 h
[4] = E. coli NCM3722 delta-lon, growth: N-lim chemostat, doubling time 6 h
[5] = E. coli NCM3722 delta-smpB, growth: N-lim chemostat, doubling time 6 h
[6] = wild type E. coli NCM3722, growth: C-lim chemostat, doubling time 3 h
[7] = wild type E. coli NCM3722, growth: C-lim chemostat, doubling time 6 h
[8] = wild type E. coli NCM3722, growth: C-lim chemostat, doubling time 12 h
[9] = wild type E. coli NCM3722, growth: N-lim chemostat, doubling time 6 h
[10] = wild type E. coli NCM3722, growth: N-lim chemostat, doubling time 12 h
[11] = wild type E. coli NCM3722, growth: P-lim chemostat, doubling time 6 h
[12] = wild type E. coli NCM3722, growth: P-lim chemostat, doubling time 12 h

Sequence: MIRFAVIGTNWITRQFVEAAHESGKYKLTAVYSRSLEQAQHFANDFSVEHLFTSLEAMAESDAIDAVYIASPNSLHFSQTQLFLSHKINVICEKPLASNLAEVDAAIACARENQVVLFEAFKTACLPNFHLLRQALPKVGKLRKVFFNYCQYSSRYQRYLDGENPNTFNPAFSNGSIMDIGFYCLASAVALFGEPKSVQATASLLASGVDAQGVVVMDYGDFSVTLQHSKVSDSVLASEIQGEAGSLVIEKLSECQKVCFVPRGSQMQDLTQPQHINTMLYEAELFATLVDEHLVDHPGLAVSRITAKLLTEIRRQTGVIFPADSVKL
- total protein half-life in vivo [1]: 4.844 ± 0.015 h
- total protein half-life in vivo [2]: 4.33 ± 0.36 h
- total protein half-life in vivo [3]: 4.29 ± 0.31 h
- total protein half-life in vivo [4]: 4.616 ± 0.03 h
- total protein half-life in vivo [5]: 4.18 ± 0.54 h
- total protein half-life in vivo [6]: 2.56 ± 0.41 h
- total protein half-life in vivo [7]: 5.28 ± 0.46 h
- total protein half-life in vivo [8]: 9.44 ± 1.5 h
- total protein half-life in vivo [9]: 4.08 ± 0.11 h
- total protein half-life in vivo [10]: 6.53 ± 1.1 h
- total protein half-life in vivo [11]: 6.55 ± 1 h
- total protein half-life in vivo [12]: 10.8 ± 0.27 h

Sequence: MGRKWANIVAKKTAKDGATSKIYAKFGVEIYAAAKQGEPDPELNTSLKFVIERAKQAQVPKHVIDKAIDKAKGGGDETFVQGRYEGFGPNGSMIIAETLTSNVNRTIANVRTIFNKKGGNIGAAGSVSYMFDNTGVIVFKGTDPDHIFEILLEAEVDVRDVTEEEGNIVIYTEPTDLHKGIAALKAAGITEFSTTELEMIAQSEVELSPEDLEIFEGLVDALEDDDDVQKVYHNVANL [P0A8A2]
- total protein half-life in vivo [1]: 5.2 ± 0.11 h
- total protein half-life in vivo [2]: 4.981 ± 0.0067 h
- total protein half-life in vivo [3]: 4.11 ± 0.057 h
- total protein half-life in vivo [4]: 5.18 ± 1 h
- total protein half-life in vivo [5]: 4.17 ± 0.56 h
- total protein half-life in vivo [6]: 2.95 ± 0.35 h
- total protein half-life in vivo [7]: 5.79 ± 1.9 h
- total protein half-life in vivo [8]: 9.45 ± 0.47 h
- total protein half-life in vivo [9]: 4.55 ± 0.5 h
- total protein half-life in vivo [10]: 7.06 ± 0.55 h
- total protein half-life in vivo [11]: 5.02 ± 0.079 h
- total protein half-life in vivo [12]: 9.37 ± 0.61 h

Sequence: MTIALELQQLKKTYPGGVQALRGIDLQVEAGDFYALLGPNGAGKSTTIGIISSLVNKTSGRVSVFGYDLEKDVVNAKRQLGLVPQEFNFNPFETVQQIVVNQAGYYGVERKEAYIRSEKYLKQLDLWGKRNERARMLSGGMKRRLMIARALMHEPKLLILDEPTAGVDIELRRSMWGFLKDLNDKGTTIILTTHYLEEAEMLCRNIGIIQHGELVENTSMKALLAKLKSETFILDLAPKSPLPKLDGYQYRLVDTATLEVEVLREQGINSVFTQLSEQGIQVLSMRNKANRLEELFVSLVNEKQGDRA
- total protein half-life in vivo [1]: 6.97 ± 0.91 h
- total protein half-life in vivo [2]: 6.29 ± 0.4 h
- total protein half-life in vivo [3]: 6.1 ± 1 h
- total protein half-life in vivo [4]: 6.83 ± 0.17 h
- total protein half-life in vivo [5]: 6.4 ± 0.21 h
- total protein half-life in vivo [6]: 3.09 ± 0.16 h
- total protein half-life in vivo [7]: 6.21 ± 0.28 h
- total protein half-life in vivo [8]: 11.6 ± 1.9 h
- total protein half-life in vivo [9]: 6.14 ± 0.38 h
- total protein half-life in vivo [10]: 12.1 ± 0.42 h
- total protein half-life in vivo [11]: 6.24 ± 0.29 h
- total protein half-life in vivo [12]: 12.7 ± 0.8 h

Sequence: MPQRILVLGASGYIGQHLVRTLSQQGHQILAAARHVDRLAKLQLANVSCHKVDLSWPDNLPALLQDIDTVYFLVHSMGEGGDFIAQERQVALNVRDALREVPVKQLIFLSSLQAPPHEQSDHLRARQATADILREANVPVTELRAGIIVGAGSAAFEVMRDMVYNLPVLTPPRWVRSRTTPIALENLLHYLVALLDHPASEHRIFEAAGPEVLSYQQQFEHFMAVSGKRRWLIPIPLPTRWISVWFLNVITSVPPTTARALIQGLKHDLLADDTALRALIPQRLIAFDDAVRSTLKEEEKLVNSSDWGYDAQAFARWRPEYGYFAKQAGFTVKTSASLAALWQVVNQIGGKERYFFGNILWQTRALMDRAIGHKLAKGRPEREYLQTGDAVDSWKVIVVEPEKQLTLLFGMKAPGLGRLCFSLEDKGDYRTIDVRAFWHPHGMPGLFYWLLMIPAHLFIFRGMAKQIARLAEQSTD
- total protein half-life in vivo [2]: 6.7 ± 0.22 h
- total protein half-life in vivo [3]: 6.57 ± 0.8 h
- total protein half-life in vivo [4]: 6.64 ± 0.098 h
- total protein half-life in vivo [5]: 6.11 ± 0.37 h
- total protein half-life in vivo [6]: 2.94 ± 0.081 h
- total protein half-life in vivo [7]: 5.88 ± 0.11 h
- total protein half-life in vivo [8]: 12.1 ± 2.1 h
- total protein half-life in vivo [9]: 6.42 ± 0.19 h
- total protein half-life in vivo [10]: 11.8 ± 0.4 h
- total protein half-life in vivo [11]: 5.23 ± 0.016 h
- total protein half-life in vivo [12]: 11.1 ± 0.83 h

Sequence: MSVVPVADVLQGRVAVDSEVTVRGWVRTRRDSKAGISFLAVYDGSCFDPVQAVINNSLPNYNEDVLRLTTGCSVIVTGKVVASPGQGQQFEIQASKVEVAGWVEDPDTYPMAAKRHSIEYLREVAHLRPRTNLIGAVARVRHTLAQALHRFFNEQGFFWVSTPLITASDTEGAGEMFRVSTLDLENLPRNDQGKVDFDKDFFGKESFLTVSGQLNGETYACALSKIYTFGPTFRAENSNTSRHLAEFWMLEPEVAFANLNDIAGLAEAMLKYVFKAVLEERADDMKFFAERVDKDAVSRLERFIEADFAQVDYTDAVTILENCGRKFENPVYWGVDLSSEHERYLAEEHFKAPVVVKNYPKDIKAFYMRLNEDGKTVAAMDVLAPGIGEIIGGSQREERLDVLDERMLEMGLNKEDYWWYRDLRRYGTVPHSGFGLGFERLIAYVTGVQNVRDVIPFPRTPRNASF [P0A8M0]
- total protein half-life in vivo [1]: 5.93 ± 0.36 h
- total protein half-life in vivo [2]: 5.65 ± 0.14 h
- total protein half-life in vivo [3]: 5.29 ± 0.32 h
- total protein half-life in vivo [4]: 6.11 ± 0.23 h
- total protein half-life in vivo [5]: 5.45 ± 0.33 h
- total protein half-life in vivo [6]: 3.23 ± 0.51 h
- total protein half-life in vivo [7]: 6.37 ± 0.33 h
- total protein half-life in vivo [8]: 11.55 ± 0.055 h
- total protein half-life in vivo [9]: 5.338 ± 0.0091 h
- total protein half-life in vivo [10]: 9.553 ± 0.028 h
- total protein half-life in vivo [11]: 6.83 ± 0.74 h
- total protein half-life in vivo [12]: 12.9 ± 0.18 h

Sequence: MKATKLVLGAVILGSTLLAGCSSNAKIDQLSSDVQTLNAKVDQLSNDVNAMRSDVQAAKDDAARANQRLDNMATKYRK
- total protein half-life in vivo [1]: 5.79 ± 1.4 h
- total protein half-life in vivo [2]: 6.38 ± 0.67 h
- total protein half-life in vivo [3]: 5.95 ± 0.4 h
- total protein half-life in vivo [5]: 5.03 ± 0.051 h
- total protein half-life in vivo [6]: 3.11 ± 0.35 h
- total protein half-life in vivo [7]: 4.92 ± 0.76 h
- total protein half-life in vivo [8]: 11.2 ± 3.2 h
- total protein half-life in vivo [9]: 5.81 ± 0.7 h
- total protein half-life in vivo [10]: 11.7 ± 3.1 h
- total protein half-life in vivo [11]: 5.66 ± 0.3 h
- total protein half-life in vivo [12]: 12.1 ± 0.34 h

From the supplement of paper PMC11246515
